Results published in article PMC12723162, “Alphaherpesvirus pUL21 homologs use non-canonical sequences to compete with cellular adaptors for protein phosphatase 1 binding” (The Journal of Biological Chemistry, 2025).

Each molecule was assayed on endogenous PP1α (assay: GFP affinity capture / co-IP of endogenous PP1α with GFP-tagged bait). Conditions: HEK 293T cells, 24 h post-transfection, GFP-Trap, immunoblot; representative of two independent experiments.
Type: binding, human
Excerpt: Bacterial expression plasmids encoding the mouse PP1γ catalytic domain (residues 7–300)-H6 and pUL21-H6, and mammalian expression vectors encoding pUL21(FV242AA)-GFP, pORF38-GFP and pORF38(FV255AA)-GFP, were described previously ([23]). We note that the mouse and human PP1γ catalytic domains share 100% amino acid identity. pORF38-NLT-H6 was generated by sub-cloning residues 1 to 263 of ORF38 into the vector pOPTnH ([52]). pUL21-RVxF-H6 was generated by inserting the mutations A237V and V239F into pUL21-H6 by QuikChange site-directed mutagenesis. Human PP1α was cloned from HeLa cell cDNA into a vector derived from pF5K (Promega) with an N-terminal Myc epitope tag via restriction-based cloning, and point mutations were introduced into Myc-PP1α by QuikChange mutagenesis. A plasmid encoding pUL21-GFP was generated by sub-cloning a codon-optimized synthetic UL21 gene (GeneArt) into pEGFP-N1 (Clontech), yielding an identical pUL21-GFP amino acid sequence as used in ([23]). pUL21-ΔL, -ΔR and -ΔLR were generated from this vector via inverse PCR, and point mutations were introduced via QuikChange mutagenesis.
Mycoplasma-free human embryonic kidney 293T (HEK 293T) cells (American Type Culture Collection #CRL-3216) were maintained in Dulbecco’s modified Eagle’s medium (DMEM) with high glucose (Merck), supplemented with 10% (v/v) heat-inactivated fetal calf serum and 2 mM L-glutamine (complete DMEM) in a humidified 5% CO2 atmosphere at 37 °C. The identity of the cell line was not independently confirmed.
Monolayers of HEK 293T cells were transfected with 7.7 μg of DNA per 9 cm dish, using 18 μg/ml 25 kDa branched polyethylenimine (Merck) or using TransIt-LT1 (Mirus) in accordance with the manufacturer’s instructions. Cells were harvested 24 h post-transfection and incubated for 30 min in ice-cold 10 mM Tris pH 7.5, 150 mM NaCl, 0.5 mM EDTA, 0.5% Igepal CA-630 (a.k.a. NP-40), 1% (v/v) EDTA-free protease inhibitor cocktail (Merck) before clarification at 21,000×g for 10 min at 4 °C. Lysate protein concentrations were measured using the bicinchoninic acid (BCA) assay (Pierce) and normalized before affinity capture using GFP-Trap resin (ChromoTek) following the manufacturer’s protocol. Samples were eluted by heating the resin to 95 °C for 5 min in 45 μl 2 × SDS-PAGE loading buffer. Proteins were separated by SDS-PAGE and transferred to 0.45 μm nitrocellulose membranes (PerkinElmer or Cytiva). Membranes were stained with Ponceau S and imaged using a G:Box XX9 (Syngene) before blocking in Tris-buffered saline with 0.1% TWEEN-20 (TBS-T) supplemented with 5% (w/v) non-fat milk powder. Immunoblotting was performed using antibodies diluted in blocking buffer as listed below, and immunoblots were imaged using an Odyssey CLx (LI-COR Biosciences). Densitometry was performed using Image Studio Lite version 5.2 (LI-COR Biosciences), and statistical tests were performed using Prism version 7 (GraphPad).
The following primary antibodies and dilutions were used for immunoblotting: rabbit anti-CERT 1:10,000 (Abcam #Ab72536), mouse anti-PP1α 1:1000 (Santa Cruz #sc-271762), mouse anti-Myc 1:4000 (Millipore #05–724), rat anti-tubulin (clone YL1/2) hybridoma supernatant 1:40 ([54]). The anti-CERT antibody was validated using a knock-out cell line. The anti-PP1α antibody has been validated by siRNA knockdown ([55]). The anti-Myc antibody was validated using control experiments lacking Myc-tagged transfected constructs ([56]). The anti-tubulin antibody has been validated by immunofluorescence microscopy, immuno-electron microscopy and radiolabeled immunosorbent assay ([54]). Secondary antibodies from LI-COR Biosciences were diluted 1:10,000 as follows: IRDye 680RD goat anti-rat (#926–68029) and goat anti-mouse (#926–68020), or IRDye 800CW goat anti-rabbit (#926–32221).

| Molecule | Co-IP of endogenous PP1α |
| --- | --- |
| H247F (protein, left off: GFP (from the vector pEGFP-N1), end not stated, kept) MELSYATTMHYRDVVFYVTTDRNRAYFVCGGCVYSVGRPCASQPGEIAKFGLVVRGTGPDDRVVANYVRSELRQRGLQDVRPIGEDEVFLDSVCLLNPNVSSELDVINTNDVEVLDECLAEYCTSLRTSPGVLISGLRVRAQDRIIELFEHPTIVNVSSHFVYTPSPYVFALAQAHLPRLPSSLEALVSGLFDGIPAPRQPLDAHNPRTDVVITGRRAPRPIAGSGAGSGGAGAKRATVSEFVQVKFIDRVGPAGVSPAPPPNNTDSSSLVPGAQDSAPPGPTLRELWWVFYAADRALEEPRADSGLTREEVRAVRGFREQAWKLFGSAGAPRAFIGAALGLSPLQKLAVYYYIIHRERRLSPFPALVRLVGRYTQRHGLYVPRPDDPVLADAINGLFRDALAAGTTAEQLLMFDLLPPKDVPVGSDVQADSTALLRFIESQRLAVPGGVISPEHVAYLGAFLSVLYAGRGRMSAATHTARLTGVTSLVLAVGDVDRLSAFDRGAAGAASRTRAAGYLDVLLTVRLARSQHGQSV | co-precipitated more PP1α than did WT pUL21-GFP |
| VV211AA (protein, left off: GFP (from the vector pEGFP-N1), end not stated, kept) MELSYATTMHYRDVVFYVTTDRNRAYFVCGGCVYSVGRPCASQPGEIAKFGLVVRGTGPDDRVVANYVRSELRQRGLQDVRPIGEDEVFLDSVCLLNPNVSSELDVINTNDVEVLDECLAEYCTSLRTSPGVLISGLRVRAQDRIIELFEHPTIVNVSSHFVYTPSPYVFALAQAHLPRLPSSLEALVSGLFDGIPAPRQPLDAHNPRTDAAITGRRAPRPIAGSGAGSGGAGAKRATVSEFVQVKHIDRVGPAGVSPAPPPNNTDSSSLVPGAQDSAPPGPTLRELWWVFYAADRALEEPRADSGLTREEVRAVRGFREQAWKLFGSAGAPRAFIGAALGLSPLQKLAVYYYIIHRERRLSPFPALVRLVGRYTQRHGLYVPRPDDPVLADAINGLFRDALAAGTTAEQLLMFDLLPPKDVPVGSDVQADSTALLRFIESQRLAVPGGVISPEHVAYLGAFLSVLYAGRGRMSAATHTARLTGVTSLVLAVGDVDRLSAFDRGAAGAASRTRAAGYLDVLLTVRLARSQHGQSV | PP1α coIP was abolished |
| R250E (protein, left off: GFP (from the vector pEGFP-N1), end not stated, kept) MELSYATTMHYRDVVFYVTTDRNRAYFVCGGCVYSVGRPCASQPGEIAKFGLVVRGTGPDDRVVANYVRSELRQRGLQDVRPIGEDEVFLDSVCLLNPNVSSELDVINTNDVEVLDECLAEYCTSLRTSPGVLISGLRVRAQDRIIELFEHPTIVNVSSHFVYTPSPYVFALAQAHLPRLPSSLEALVSGLFDGIPAPRQPLDAHNPRTDVVITGRRAPRPIAGSGAGSGGAGAKRATVSEFVQVKHIDEVGPAGVSPAPPPNNTDSSSLVPGAQDSAPPGPTLRELWWVFYAADRALEEPRADSGLTREEVRAVRGFREQAWKLFGSAGAPRAFIGAALGLSPLQKLAVYYYIIHRERRLSPFPALVRLVGRYTQRHGLYVPRPDDPVLADAINGLFRDALAAGTTAEQLLMFDLLPPKDVPVGSDVQADSTALLRFIESQRLAVPGGVISPEHVAYLGAFLSVLYAGRGRMSAATHTARLTGVTSLVLAVGDVDRLSAFDRGAAGAASRTRAAGYLDVLLTVRLARSQHGQSV | dramatically reduced binding |
| A237V (protein, left off: GFP (from the vector pEGFP-N1), end not stated, kept) MELSYATTMHYRDVVFYVTTDRNRAYFVCGGCVYSVGRPCASQPGEIAKFGLVVRGTGPDDRVVANYVRSELRQRGLQDVRPIGEDEVFLDSVCLLNPNVSSELDVINTNDVEVLDECLAEYCTSLRTSPGVLISGLRVRAQDRIIELFEHPTIVNVSSHFVYTPSPYVFALAQAHLPRLPSSLEALVSGLFDGIPAPRQPLDAHNPRTDVVITGRRAPRPIAGSGAGSGGAGAKRVTVSEFVQVKHIDRVGPAGVSPAPPPNNTDSSSLVPGAQDSAPPGPTLRELWWVFYAADRALEEPRADSGLTREEVRAVRGFREQAWKLFGSAGAPRAFIGAALGLSPLQKLAVYYYIIHRERRLSPFPALVRLVGRYTQRHGLYVPRPDDPVLADAINGLFRDALAAGTTAEQLLMFDLLPPKDVPVGSDVQADSTALLRFIESQRLAVPGGVISPEHVAYLGAFLSVLYAGRGRMSAATHTARLTGVTSLVLAVGDVDRLSAFDRGAAGAASRTRAAGYLDVLLTVRLARSQHGQSV | co-precipitated more PP1α than did WT pUL21-GFP |
| A218E (protein, left off: GFP (from the vector pEGFP-N1), end not stated, kept) MELSYATTMHYRDVVFYVTTDRNRAYFVCGGCVYSVGRPCASQPGEIAKFGLVVRGTGPDDRVVANYVRSELRQRGLQDVRPIGEDEVFLDSVCLLNPNVSSELDVINTNDVEVLDECLAEYCTSLRTSPGVLISGLRVRAQDRIIELFEHPTIVNVSSHFVYTPSPYVFALAQAHLPRLPSSLEALVSGLFDGIPAPRQPLDAHNPRTDVVITGRREPRPIAGSGAGSGGAGAKRATVSEFVQVKHIDRVGPAGVSPAPPPNNTDSSSLVPGAQDSAPPGPTLRELWWVFYAADRALEEPRADSGLTREEVRAVRGFREQAWKLFGSAGAPRAFIGAALGLSPLQKLAVYYYIIHRERRLSPFPALVRLVGRYTQRHGLYVPRPDDPVLADAINGLFRDALAAGTTAEQLLMFDLLPPKDVPVGSDVQADSTALLRFIESQRLAVPGGVISPEHVAYLGAFLSVLYAGRGRMSAATHTARLTGVTSLVLAVGDVDRLSAFDRGAAGAASRTRAAGYLDVLLTVRLARSQHGQSV | PP1α coIP was abolished |
| Q174R (protein, left off: GFP (from the vector pEGFP-N1), end not stated, kept) MELSYATTMHYRDVVFYVTTDRNRAYFVCGGCVYSVGRPCASQPGEIAKFGLVVRGTGPDDRVVANYVRSELRQRGLQDVRPIGEDEVFLDSVCLLNPNVSSELDVINTNDVEVLDECLAEYCTSLRTSPGVLISGLRVRAQDRIIELFEHPTIVNVSSHFVYTPSPYVFALARAHLPRLPSSLEALVSGLFDGIPAPRQPLDAHNPRTDVVITGRRAPRPIAGSGAGSGGAGAKRATVSEFVQVKHIDRVGPAGVSPAPPPNNTDSSSLVPGAQDSAPPGPTLRELWWVFYAADRALEEPRADSGLTREEVRAVRGFREQAWKLFGSAGAPRAFIGAALGLSPLQKLAVYYYIIHRERRLSPFPALVRLVGRYTQRHGLYVPRPDDPVLADAINGLFRDALAAGTTAEQLLMFDLLPPKDVPVGSDVQADSTALLRFIESQRLAVPGGVISPEHVAYLGAFLSVLYAGRGRMSAATHTARLTGVTSLVLAVGDVDRLSAFDRGAAGAASRTRAAGYLDVLLTVRLARSQHGQSV | PP1α coIP was abolished |
| A232K (protein, left off: GFP (from the vector pEGFP-N1), end not stated, kept) MELSYATTMHYRDVVFYVTTDRNRAYFVCGGCVYSVGRPCASQPGEIAKFGLVVRGTGPDDRVVANYVRSELRQRGLQDVRPIGEDEVFLDSVCLLNPNVSSELDVINTNDVEVLDECLAEYCTSLRTSPGVLISGLRVRAQDRIIELFEHPTIVNVSSHFVYTPSPYVFALAQAHLPRLPSSLEALVSGLFDGIPAPRQPLDAHNPRTDVVITGRRAPRPIAGSGAGSGGKGAKRATVSEFVQVKHIDRVGPAGVSPAPPPNNTDSSSLVPGAQDSAPPGPTLRELWWVFYAADRALEEPRADSGLTREEVRAVRGFREQAWKLFGSAGAPRAFIGAALGLSPLQKLAVYYYIIHRERRLSPFPALVRLVGRYTQRHGLYVPRPDDPVLADAINGLFRDALAAGTTAEQLLMFDLLPPKDVPVGSDVQADSTALLRFIESQRLAVPGGVISPEHVAYLGAFLSVLYAGRGRMSAATHTARLTGVTSLVLAVGDVDRLSAFDRGAAGAASRTRAAGYLDVLLTVRLARSQHGQSV | did not dramatically alter PP1α coIP |
